Earlier results on one substance are cited in PMC12692597.

In general, Kd refers to the free concentration of one partner at which half of the binding sites on the other are occupied at equilibrium, for simple one-to-one binding.

The target in this data set is IL-13 (Homo sapiens) (UniProt P35225).
Sequence of UniProt P35225 (P35225 25-146): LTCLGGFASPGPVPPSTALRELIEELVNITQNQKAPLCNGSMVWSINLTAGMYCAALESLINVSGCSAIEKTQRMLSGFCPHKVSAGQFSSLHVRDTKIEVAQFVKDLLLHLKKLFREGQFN

As to IL-13Rα2 (from UniProt Q14627), the Kd is 0.02 nM.
